Biological target: T1, endogenous ZNF410 (Homo sapiens, UniProt Q86VK4)
T1 construct: endogenous in cells; host or cells: HUDEP-2 (HUDEP-2-Cas9) cells, differentiated
T1 sequence (Q86VK4 1-478): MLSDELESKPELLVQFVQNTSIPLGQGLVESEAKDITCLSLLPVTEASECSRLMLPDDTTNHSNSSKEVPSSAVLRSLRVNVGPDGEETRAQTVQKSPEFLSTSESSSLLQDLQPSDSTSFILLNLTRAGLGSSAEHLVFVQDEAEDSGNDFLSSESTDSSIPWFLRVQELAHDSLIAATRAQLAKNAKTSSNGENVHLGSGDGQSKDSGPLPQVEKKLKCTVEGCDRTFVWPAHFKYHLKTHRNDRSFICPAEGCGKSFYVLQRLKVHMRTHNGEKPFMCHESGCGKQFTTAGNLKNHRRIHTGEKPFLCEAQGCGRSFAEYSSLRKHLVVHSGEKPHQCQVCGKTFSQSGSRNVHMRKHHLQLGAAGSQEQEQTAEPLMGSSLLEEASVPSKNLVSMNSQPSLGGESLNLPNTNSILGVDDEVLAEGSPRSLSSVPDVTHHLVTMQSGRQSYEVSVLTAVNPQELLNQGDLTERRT
Assay: RT-qPCR in HUDEP-2 cells overexpressing HA-tagged ZNF410 constructs
Assay type: cell-based
Description: HUDEP-2 cells were cultured and differentiated as described (Kurita, et al. (2013) PLoS One 8:e59890). Briefly, StemSpan™ Serum-Free Expansion Medium (SFEM) supplemented with 50 ng/ml human stem cell factor (SCF), 10 μM dexamethasone, 1 μg/ml doxycycline, 3 IU/ml erythropoietin and 1% penicillin/streptomycin was utilized for routine cell maintenance. Cell density was kept at 0.1-1×10^6/ml. HUDEP-2 cells were differentiated for 6-7 days in IMDM supplemented with 50 ng/ml human SCF, 3 IU/ml erythropoietin, 2.5% fetal bovine serum, 250 μg/ml holo-transferrin, 10 ng/ml heparin, 10 μg/ml insulin, 1 μg/ml doxycycline and 1% penicillin/streptomycin.
SgRNAs were cloned into a lentiviral U6-sgRNA-EFS-GFP/mCherry expression vector (LRG, Addgene: #65656) by BsmBI digestion. The ZNF410 cDNA (clone ID: OHu10535), CHD4 cDNA (clone ID: OHu28780) were purchased from GenScript and were sub-cloned into a lentiviral vector pSDM101-IRES-GFP. ZNF410 variants were sub-cloned into pSDM101-IRES-GFP vector. The N-terminal HA tag was introduced by PCR. For EMSA, the ZNF410 full length or different ZF versions were sub-cloned into mammalian expression vector pcDNA3.
Lentivirus was produced as described (Grevet, et al. (2018) Science 361:285-290). Briefly, 10-20 μg of expression vectors, 5-10 μg of pVSVG (pMD2.G) and 7.5-15 μg of psPAX2 package plasmids, and 80 μl of 1 mg/ml polyethylenimine (PEI) were mixed, incubated for 15-20 minutes, and added to HEK293T cells grown in 10 cm plates to above 90% confluence. Media were replaced 6-8 hours post transfection, virus was collected 24 hours and 48 hours post-transfection and pooled. For infection, virus-containing supernatant was mixed with the indicated cell lines with 8 μg/ml polybrene and 10 mM HEPES, and then spun at 2250 rpm for 1.5 hours at room temperature. Infected HUDEP-2 cells were selected for mCherry+ or GFP+ cell sorting at 48 hours post-infection.
Total RNA was purified using the RNeasy® Plus Mini Kit (Qiagen), including an on-column DNAse treatment using RNase-free DNase set (Qiagen) to remove genomic DNA. Reverse transcription was accomplished using iScript™ Supermix (Bio-Rad). qPCR reactions were prepared with Power SYBR® Green (ThermoFisher Scientific). Quantification was performed using the ΔΔCT method.
Overexpression of ZF1-5 but not ZF2-4 should compete with endogenous ZNF410 for chromatin binding, thus acting in a dominant-negative manner. To test this hypothesis, a construct containing HA-tagged ZF1-5 or ZF2-4 driven by the EF1α promoter was introduced via lentiviral infection into HUDEP-2 cells. As control, the expression of full-length HA-tagged ZNF410 was forced. […] Moreover, full-length HA-ZNF410 when overexpressed to similar levels to HA-ZF1-5 also produced similar binding patterns (FIG. 4A). […] Thus, the ZF region is sufficient for chromatin occupancy but insufficient for CHD4 gene activation. […] Finally, the impact of ZNF410 expression on γ-globin levels was also measured.

[1] = overexpression in HUDEP-2 cells

B1: ZF1-5: fragment of human ZNF410 comprising five zinc finger domains ZF1-5 (residues 217-366); dominant-negative when overexpressed (protein)
chain: KKLKCTVEGCDRTFVWPAHFKYHLKTHRNDRSFICPAEGCGKSFYVLQRLKVHMRTHNGEKPFMCHESGCGKQFTTAGNLKNHRRIHTGEKPFLCEAQGCGRSFAEYSSLRKHLVVHSGEKPHQCQVCGKTFSQSGSRNVHMRKHHLQLG
modifications: left off: small tags and cut ends
notes: fragment of human ZNF410 comprising five zinc finger domains ZF1-5 (residues 217-366); dominant-negative when overexpressed
B1 was tested, and the “effect on expression of the other 6 ZNF410 bound genes” value [1] was “did not impact”, the “reduction of CHD4 mRNA levels compared to control” value [1] was “approximately 70%” and the “effect on γ-globin mRNA levels” value (overexpression in differentiated HUDEP-2 cells) was “significant increase”.

— US20230272390A1, “COMPOSITIONS AND METHODS FOR HEMOGLOBIN PRODUCTION” (THE CHILDREN'S HOSPITAL OF PHILADELPHIA, priority 2020, published 2023)
